According to paper PMC11931385, “Structural and functional analysis of cancer-associated missense variants in the retinoblastoma protein pocket domain” (The Journal of Biological Chemistry, 2025):
No end group written: not given here. TMR = tetramethyl rhodamine dye

B1: TMR-E2F1^TD, peptide of the E2F1 transactivation domain (peptide)
peptide: {TMR}-GEGIRDLFDCDFGDLTPLD
notes: also called E2F^TD; source: synthetic peptide, bought: GenScript
B2: TMR-E7^LxCxE, LxCxE peptide of the E7 oncoprotein from HPV (peptide)
peptide: DLYCYEQLN
modifications: also: TMR label, position not given here
notes: source: synthetic peptide, bought: GenScript

Tests used:
Assay in all cases: fluorescence polarisation; 37 °C, after the 25 °C reading ramped over 7 min to 37 °C and 2 min incubation; unlabeled Rb^P against 1.5 nM TMR-E2F1^TD or 7.5 nM TMR-E7^LxCxE; 25 mM Tris pH 8.0, 200 mM NaCl, 1 mM DTT, 0.1% Tween-20; apparent Kd
Settings in all cases: both partners purified
Rb^P Q444L = biological target: T1, Rb^P Q444L (human, UniProt P06400 380-788, Q444L)
T1 construct: also called variant 3
T1 sequence (looked up): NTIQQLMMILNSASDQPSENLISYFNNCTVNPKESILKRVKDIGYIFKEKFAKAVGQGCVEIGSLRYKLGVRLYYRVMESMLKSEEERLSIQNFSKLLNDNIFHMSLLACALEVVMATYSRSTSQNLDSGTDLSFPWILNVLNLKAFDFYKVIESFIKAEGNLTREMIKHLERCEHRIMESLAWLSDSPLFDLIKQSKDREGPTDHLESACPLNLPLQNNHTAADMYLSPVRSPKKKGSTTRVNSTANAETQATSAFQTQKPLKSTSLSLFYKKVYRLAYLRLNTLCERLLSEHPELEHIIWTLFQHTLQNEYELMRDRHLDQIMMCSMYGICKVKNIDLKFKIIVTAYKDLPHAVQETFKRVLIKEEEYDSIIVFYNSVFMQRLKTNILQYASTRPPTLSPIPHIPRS

Rb^P K462T = biological target: T2, Rb^P K462T (human, UniProt P06400 380-788, K462T)
T2 construct: also called variant 9
T2 sequence (looked up): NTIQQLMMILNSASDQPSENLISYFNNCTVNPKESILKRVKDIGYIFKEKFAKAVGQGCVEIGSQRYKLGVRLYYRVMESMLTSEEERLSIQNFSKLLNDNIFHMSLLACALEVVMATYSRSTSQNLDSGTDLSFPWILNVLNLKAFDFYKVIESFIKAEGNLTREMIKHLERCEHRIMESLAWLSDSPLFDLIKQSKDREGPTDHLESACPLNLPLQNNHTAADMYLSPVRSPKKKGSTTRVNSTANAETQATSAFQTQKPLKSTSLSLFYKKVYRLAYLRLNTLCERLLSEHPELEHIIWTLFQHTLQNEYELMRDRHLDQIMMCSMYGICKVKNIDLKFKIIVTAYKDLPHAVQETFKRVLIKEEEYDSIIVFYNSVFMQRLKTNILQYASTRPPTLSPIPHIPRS

Rb^P T638S = biological target: T3, Rb^P T638S (human, UniProt P06400 380-788, T638S)
T3 construct: also called variant 45
T3 sequence (looked up): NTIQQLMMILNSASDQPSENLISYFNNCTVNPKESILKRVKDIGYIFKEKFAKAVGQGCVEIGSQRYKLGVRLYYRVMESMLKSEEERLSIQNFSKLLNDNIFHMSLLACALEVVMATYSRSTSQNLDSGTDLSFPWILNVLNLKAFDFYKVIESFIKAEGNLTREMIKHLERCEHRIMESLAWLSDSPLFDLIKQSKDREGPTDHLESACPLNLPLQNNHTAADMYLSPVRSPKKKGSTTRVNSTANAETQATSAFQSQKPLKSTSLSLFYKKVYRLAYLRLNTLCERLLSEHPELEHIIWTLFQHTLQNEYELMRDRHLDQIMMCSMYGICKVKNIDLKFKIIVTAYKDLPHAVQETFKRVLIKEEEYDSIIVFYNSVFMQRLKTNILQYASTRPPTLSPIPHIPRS

Rb^P D604G = biological target: T4, Rb^P D604G (human, UniProt P06400 380-788, D604G)
T4 construct: also called variant 36
T4 sequence (looked up): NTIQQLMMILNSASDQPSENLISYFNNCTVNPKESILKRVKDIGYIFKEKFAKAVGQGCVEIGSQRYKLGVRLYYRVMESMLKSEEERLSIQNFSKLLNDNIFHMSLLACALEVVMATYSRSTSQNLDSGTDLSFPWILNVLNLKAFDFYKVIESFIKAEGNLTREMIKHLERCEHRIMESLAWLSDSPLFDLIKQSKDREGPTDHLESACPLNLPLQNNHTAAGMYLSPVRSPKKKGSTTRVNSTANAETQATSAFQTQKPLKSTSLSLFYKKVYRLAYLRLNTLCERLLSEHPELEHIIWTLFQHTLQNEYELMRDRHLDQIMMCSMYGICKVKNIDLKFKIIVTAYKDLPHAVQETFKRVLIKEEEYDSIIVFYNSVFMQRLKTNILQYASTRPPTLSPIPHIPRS

Rb^P E492Q = biological target: T5, Rb^P E492Q (human, UniProt P06400 380-788, E492Q)
T5 construct: also called variant 18
T5 sequence (looked up): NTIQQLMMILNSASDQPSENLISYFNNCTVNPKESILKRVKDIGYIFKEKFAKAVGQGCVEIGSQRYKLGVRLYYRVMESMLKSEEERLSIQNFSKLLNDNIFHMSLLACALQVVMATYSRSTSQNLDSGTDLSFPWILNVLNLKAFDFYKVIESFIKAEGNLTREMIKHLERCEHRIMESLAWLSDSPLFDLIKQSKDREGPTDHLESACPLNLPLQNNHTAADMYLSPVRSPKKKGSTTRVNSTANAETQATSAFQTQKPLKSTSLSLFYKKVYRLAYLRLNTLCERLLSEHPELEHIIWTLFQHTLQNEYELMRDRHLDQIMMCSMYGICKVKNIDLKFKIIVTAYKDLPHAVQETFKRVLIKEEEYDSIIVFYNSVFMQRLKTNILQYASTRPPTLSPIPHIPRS

| Binder | Kd (Rb^P Q444L) [nM] | Kd (Rb^P K462T) [nM] | Kd (Rb^P T638S) [nM] | Kd (Rb^P D604G) [nM] | Kd (Rb^P E492Q) [nM] |
| --- | --- | --- | --- | --- | --- |
| B1 | 30 | 51 | 38 | 50 | 73 |
| B2 | 11 | 16 | 14 | 26 | 52 |
